# Article doi:10.1101/2025.03.01.640934 (bioRxiv, 2025)
# Target: the molecule itself
# Experiment: native MS
protein,measurement,value
recombinant DK fragment (DUF3669 and KRAB domains; residues 1-191) of ZNF746 (domain or fragment) not shown,stoichiometry N,3
